This is an account of results in publication PMC3477478.

Substrate in this data set: CC(=O)O
In words: purified protein. The settings on record: 10 mM ATP, 0.47 mM HSCoA, 10 mM MgCl2, 120 mM hydroxylamine, 10 mM reduced glutathione, Tris/HCl pH 7.5, 37 °C, apparent Km.

B1: K. stuttgartiensis ACS (kustc1128), AMP-forming acetyl-CoA synthetase (Candidatus Kuenenia stuttgartensis) (protein)
chain: MNKTEIINKHPEAFNLICYEDQHKNFSWETVKKELGVGGNKVNIAYEAIDKHATTWRKNKVALYWEGSDGTHLKYTFQELKILSDKCANMLQSLGVGKGDRVFLFLPRLPELFINMIAIAKLGAISGPMFSAFGPDAVRDRLQNSEAKVLITTPELKERVDAVLWELPKLERIVLVSVKEDYELEEGNVCYKTLMKDAPERFEMEWMDMEDPLYLLYTSGTTGKPKGITHVHNDMISYYITTKWSLDLRDDDIYWCTADPGWVTGTVYGMWGPWLNGVSMYIYDGRFDVNKWYEAIQSYKITVWYTAPTALRMLMKSGDYLVAQYDLESLRYICSVGEPLNPEVIKWGMNVYNLPIHDTWWQTETGSIMIANYPCIPIKPGSMGKPFPGIKAAIIDSEGNELPDGHHGILALKPGWPSMLRKVWGDEGRFNEYFNITGWYTTGDTAYKDEEGYFWFVGRADDVINTSGHRVGPFEVESALLEHRAVAEAGVIGKPDPERGEIIKAFIALKEGFKPSSELGEEIKKFIKHHLAAHAYPREIEFCENLPKTRSGKIMRRLLKAKDLGLPTGDISTLED
As to B1, the Km (as a rule, the concentration of substrate that gives half-maximal velocity) was determined as 200 µM.
